Target: T1, MEX-5 (UniProt Q9XUB2 Q9XUB2:236-350)
T1 sequence: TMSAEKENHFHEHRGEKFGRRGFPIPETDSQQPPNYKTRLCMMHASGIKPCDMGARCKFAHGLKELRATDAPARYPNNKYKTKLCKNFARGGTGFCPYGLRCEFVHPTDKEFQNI
Test: FP; 120 nM protein, 2 nM RNA, 100 uM zinc acetate, 20-50 mM Tris pH 8.0, 40-100 mM NaCl, tRNA; Z-value 0.8-0.9; also by gel shift; small-molecule inhibition of complex measured
Details: tags: N-terminal MBP fusion (pMal-c, NEB); HTS paragraph says C-terminal fusion to MBP; from Open Biosystems ORFeome clone; label: 3'-fluorescein (FITC)

UUUCUUUAUAACUUGUUACAAUUUUUGAAA (ssRNA) [TCR2 RNA]: binds.
